Data taken from the supplement of paper PMC10126150.
± gives the standard deviation of the averaged measurements.

System: ATP
Experiment: switch fluorescence ratio, 500 uM ATP over buffer (Cy3 cluster intensity, sum of 5 cycles each) (fold (ratio)); higher = stronger signal-on switching upon ATP binding; sequences stand for … in TCGTCGGCAGCGTCAGATGTGTATAAGAGACAGTTTTTTTTTTTTTTTTTTTTTTTTT…TC
Conditions: aptamer strand: ATP DNA aptamer (quencher-CACCTGGGGGAGTATTGCGGAGGAAGG + anchor), 100 nM annealed; ATP concentration: 500 uM
Procedure, shortened: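 Per cluster, summed Cy3 intensity from the target cycles was divided by that from the buffer cycles to give the fluorescence ratio, then averaged per switch-domain sequence. Clusters outside 100-1000 RFU were excluded. The Cy3-labelled switching-strand clusters, on a modified Illumina MiSeq flow-cell, were annealed to 100 nM quencher-labelled ATP aptamer and imaged in selection buffer, then after 15 min with 500 uM ATP at 22 °C, for five cycles with NaOH stripping and re-annealing between them.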
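Note: ATP exposure 15 min at 22 °C before imaging.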

Sequence	switch fluorescence ratio
ATTATGTAGA	0.9958 ± 0.0091
ATGAATGTAT	0.9855 ± 0.0062
ATGAGGGTCC	1.1 ± 0.032
AATCGGAGCA	1.349 ± 0.0071
CTAGGCAATG	1.44 ± 0.67
CAGGAGGACT	1.02 ± 0.015
TAGGATGTCT	1 ± 0.0021
TGTTGTGCAC	1.02 ± 0.023
AGGGGGTGCT	0.997 ± 0.028
CCAGGCTGTT	1.07 ± 0.023
TCTCTTTTTA	1.02 ± 0.023
TAATAAGAGA	0.985 ± 0.015
TTTGAAATAT	1.01 ± 0.013
TACGTGCTCC	1.144 ± 0.0012
TTGGGGGTAG	1.04 ± 0.13
GAAGAAGTAA	1.03 ± 0.013
ATTTCTTGGG	0.99703 ± 0.00034
GGGGGCGTGG	1 ± 0.043
GTTATTTAGT	0.967 ± 0.05
ATAGGTCTTA	0.983 ± 0.04
TACGTTTCT	1 ± 0.054
CATGTCATTG	1.01 ± 0.015
GCGGTAACCA	0.992 ± 0.033
TATTGGAGGG	0.974 ± 0.019
GTCTGTGGGT	0.972 ± 0.06
GATCGGCGTG	1 ± 0.015

Sequence	switch fluorescence ratio
TTTAGGTTGC	0.9817 ± 0.0056
TTCATAGGTT	1.02 ± 0.012
TTTGGTTTTC	1.02 ± 0.033
CGGTGCTATG	1 ± 0.015
TCGATCTTGG	0.988 ± 0.011
AAATAGATCG	1.05 ± 0.066
CTAAGCCCGG	1 ± 0.011
TATCTGTGCC	0.96 ± 0.054
GCAAATAGTT	0.993 ± 0.024
TATAACCTGT	1.015 ± 0.0089
GGACTTGGGT	0.9702 ± 0.0082
GATGTGCGTG	0.9956 ± 0.0091
TAGGGGTTAT	0.995 ± 0.015
TATTGGGTGT	1.034 ± 0.0014
AATGAATCGT	1 ± 0.015
CCCCAGGCAT	2.68 ± 0.5
CTGTTAGGTA	1.007 ± 0.01
CAGGTGGGGC	1.02 ± 0.035
GCGTTAGTTG	1.01 ± 0.057
CTTCTTCAGC	1.44 ± 0.061
TGTTATAAAT	0.999 ± 0.032
TTTGGGCATA	1.16 ± 0.19
GGGTTCGGGA	0.991 ± 0.027
AATTGGGCTT	1.02 ± 0.043
TATTGCGGCC	1.02 ± 0.026
GACTGGGGAG	0.991 ± 0.056

Sequence	switch fluorescence ratio
GGTTCGGATC	0.99316 ± 0.00058
ACCCGAGGGA	1.05 ± 0.05
TCTGTAAATT	0.991 ± 0.03
ATTTCGTAGG	1.01 ± 0.024
GACTTTGTCA	1.04 ± 0.025
ACTCAAGGCT	1.07 ± 0.049
ACTAATGTTT	0.994 ± 0.036
TGGGTAACAT	0.99 ± 0.031
GGGGCTGCGG	0.973 ± 0.052
TCGGGGCCTT	0.998 ± 0.033
GGGTGGGGG	1.01 ± 0.033
CGCAAAATTT	1.11 ± 0.11
AACTGGACTT	1.11 ± 0.042
AAGATGGTCA	0.993 ± 0.036
TTTCGGTCAC	0.983 ± 0.0036
TATTCTAAAT	1.01 ± 0.016
TTTTATGTTT	1 ± 0.019
ATATGCCGAT	0.996 ± 0.013
TCTGTATTTG	0.981 ± 0.028
AAATTTACCG	1.05 ± 0.015
TGGGGGATTC	1.03 ± 0.067
TTTCCAGACT	0.968 ± 0.019
GACCAGCCCC	1.31 ± 0.098
CTGGGATTGG	1.001 ± 0.0039
